{"source": "paper PMC11098746", "key": {"[1]": {"biological_target": "Pf34 bait (P. falciparum Pf34 ectodomain, human Fc-tagged dimeric bait) (P. falciparum)"}, "[2]": {"biological_target": "Pf34 bait (P. falciparum Pf34 ectodomain, human Fc-tagged dimeric bait) (P. falciparum)", "test": "SPR"}, "[3]": {"biological_target": "Pf34 bait (Pf34 ectodomain with CD4d3+4, human Fc and C-tag) (Plasmodium falciparum)", "test": "SPR"}, "Izumo (Mus musculus)": {"biological_target": "Izumo (Mus musculus) (UniProt Q9D9J7)", "sequence (Q9D9J7 22-319)": "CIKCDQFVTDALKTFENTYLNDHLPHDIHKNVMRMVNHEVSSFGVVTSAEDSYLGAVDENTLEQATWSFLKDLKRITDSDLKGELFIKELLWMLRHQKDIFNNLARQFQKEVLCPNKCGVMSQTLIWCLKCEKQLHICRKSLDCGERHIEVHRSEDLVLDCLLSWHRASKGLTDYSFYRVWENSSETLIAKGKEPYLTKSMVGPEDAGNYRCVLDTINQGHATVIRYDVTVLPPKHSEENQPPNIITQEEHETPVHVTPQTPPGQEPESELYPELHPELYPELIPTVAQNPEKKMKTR", "settings": "cited from earlier work"}, "[4]": {"biological_target": "PfRON6 C-terminal bait (PfRON6 residues 537-950 with CD4d3+4, human Fc and C-tag) (Plasmodium falciparum)", "test": "SPR"}}, "note": "“And” between values parts separate entries of the source, which are not always exact repeats. Equal entries are not always repeated."}
{"substance": "FGFR4 prey (human fibroblast growth factor receptor 4 ectodomain, pentameric 5xNanoLuc-tagged prey) (from UniProt P22455 22-369)", "values": [{"measurement": "inhibition of NF54 sporozoite invasion of primary human hepatocytes (ISI assay) by LD1 mAb, up to 25 µg/mL", "setting": "[1]", "result": 20, "unit": "%"}, {"measurement": "inhibition of NF54 sporozoite invasion of primary human hepatocytes (ISI assay) by anti-FGFR4 rabbit pAbs, up to 2 mg/mL", "setting": "[1]", "result": 20, "unit": "%"}]}
{"substance": "FGFR4-CD4-Bio-His (purified monomeric FGFR4 ectodomain) (from UniProt P22455 22-369) (receptor)", "values": [{"measurement": "Kd", "setting": "[2]", "result": "46 µM and 40 µM"}, {"measurement": "t1/2", "setting": "[2]", "result": "< 1 s and 0.4 s"}]}
{"substance": "FGFR4-CD4-Bio-His (purified monomeric human FGFR4 ectodomain) (from UniProt P22455 22-369) (receptor)", "values": [{"measurement": "Kd", "setting": "[3]", "result": "47 µM and 14 µM and 31 µM"}, {"measurement": "kon", "setting": "[3]", "result": "16000 M⁻¹ s⁻¹ and 44000 M⁻¹ s⁻¹ and 30000 M⁻¹ s⁻¹"}]}
{"substance": "Juno (from UniProt Q9EQF4)", "values": [{"measurement": "Kd", "setting": "Izumo (Mus musculus)", "result": 12, "unit": "µM"}]}
{"substance": "Pf34-CD4-Bio-His (purified monomeric Pf34) (natural protein)", "values": [{"measurement": "Kd", "setting": "[4]", "result": 2900, "unit": "nM"}, {"measurement": "koff", "setting": "[4]", "result": 0.0015, "unit": "s⁻¹"}, {"measurement": "kon", "setting": "[4]", "result": 520, "unit": "M⁻¹ s⁻¹"}]}
